Test results taken from patent US20020127673A1 (REGENTS OF THE UNIVERSITY OF MICHIGAN, published 2002).

Each binder was assayed against T1, HA-tagged wild-type Nod2 (human, UniProt Q9HC29 1-1040) (assay: co-immunoprecipitation from co-transfected HEK293T cells).
T1 construct: Expressed by transfection in HEK293T cells and tested in cell lysates; also called wt Nod2; pcDNA3-Nod2-HA; not shown: HA tag
Description: The CARD motif functions as an effector domain that mediates specific homophilic interaction with downstream CARD-containing molecules (Hofmann et al., Trends Biochem. Sci. 22: 155-156 [1997]).

T1 sequence (Q9HC29 whole entry R703H): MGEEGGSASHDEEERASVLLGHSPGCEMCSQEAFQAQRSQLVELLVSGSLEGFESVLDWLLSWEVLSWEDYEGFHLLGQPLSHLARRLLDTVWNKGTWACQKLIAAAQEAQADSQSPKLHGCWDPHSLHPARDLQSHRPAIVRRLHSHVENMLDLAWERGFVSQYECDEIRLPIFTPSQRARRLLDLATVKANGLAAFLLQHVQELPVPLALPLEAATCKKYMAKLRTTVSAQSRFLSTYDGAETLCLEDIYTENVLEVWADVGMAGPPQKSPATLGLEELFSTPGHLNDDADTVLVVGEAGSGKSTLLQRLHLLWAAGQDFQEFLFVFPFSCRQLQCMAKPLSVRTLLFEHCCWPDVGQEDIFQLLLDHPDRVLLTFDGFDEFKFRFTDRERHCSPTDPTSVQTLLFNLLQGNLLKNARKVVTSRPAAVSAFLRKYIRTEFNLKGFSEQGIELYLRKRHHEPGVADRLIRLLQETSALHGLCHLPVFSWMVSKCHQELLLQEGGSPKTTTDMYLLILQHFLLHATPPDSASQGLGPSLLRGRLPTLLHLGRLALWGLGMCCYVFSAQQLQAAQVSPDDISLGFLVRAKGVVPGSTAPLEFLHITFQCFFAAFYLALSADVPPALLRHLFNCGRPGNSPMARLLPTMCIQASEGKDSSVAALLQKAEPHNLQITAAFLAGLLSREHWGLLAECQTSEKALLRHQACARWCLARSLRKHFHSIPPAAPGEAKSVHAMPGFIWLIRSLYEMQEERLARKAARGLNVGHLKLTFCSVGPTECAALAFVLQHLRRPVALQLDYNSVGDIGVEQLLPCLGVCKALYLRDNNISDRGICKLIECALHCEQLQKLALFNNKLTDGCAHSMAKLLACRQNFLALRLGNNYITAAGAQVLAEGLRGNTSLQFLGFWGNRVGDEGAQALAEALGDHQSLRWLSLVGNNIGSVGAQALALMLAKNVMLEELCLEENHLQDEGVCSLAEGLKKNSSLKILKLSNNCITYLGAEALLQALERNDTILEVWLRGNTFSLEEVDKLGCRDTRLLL

| Binder | binding result |
| --- | --- |
| IKKα (enzyme, UniProt O15111 1-745, looked up, Construct and tag not described for this test) MERPPGLRPGAGGPWEMRERLGTGGFGNVCLYQHRELDLKIAIKSCRLELSTKNRERWCHEIQIMKKLNHANVVKACDVPEELNILIHDVPLLAMEYCSGGDLRKLLNKPENCCGLKESQILSLLSDIGSGIRYLHENKIIHRDLKPENIVLQDVGGKIIHKIIDLGYAKDVDQGSLCTSFVGTLQYLAPELFENKPYTATVDYWSFGTMVFECIAGYRPFLHHLQPFTWHEKIKKKDPKCIFACEEMSGEVRFSSHLPQPNSLCSLVVEPMENWLQLMLNWDPQQRGGPVDLTLKQPRCFVLMDHILNLKIVHILNMTSAKIISFLLPPDESLHSLQSRIERETGINTGSQELLSETGISLDPRKPASQCVLDGVRGCDSYMVYLFDKSKTVYEGPFASRSLSDCVNYIVQDSKIQLPIIQLRKVWAEAVHYVSGLKEDYSRLFQGQRAAMLSLLRYNANLTKMKNTLISASQQLKAKLEFFHKSIQLDLERYSEQMTYGISSEKMLKAWKEMEEKAIHYAEVGVIGYLEDQIMSLHAEIMELQKSPYGRRQGDLMESLEQRAIDLYKQLKHRPSDHSYSDSTEMVKIIVHTVQSQDRVLKELFGHLSKLLGCKQKIIDLLPKVEVALSNIKEADNTVMFMQGKRQKEIWHLLKIACTQSSARSLVGSSLEGAVTPQTSAWLPPTSAEHDHSLSCVVTPQDGETSAQMIEENLNCLGHLSTIIHEANEEQGNSMMNLDWSWLTE | no binding |
| TRAF-1 (other, UniProt Q13077 1-416, looked up, Construct and tag not described) MASSSGSSPRPAPDENEFPFGCPPTVCQDPKEPRALCCAGCLSENPRNGEDQICPKCRGEDLQSISPGSRLRTQEKAHPEVAEAGIGCPFAGVGCSFKGSPQSVQEHEVTSQTSHLNLLLGFMKQWKARLGCGLESGPMALEQNLSDLQLQAAVEVAGDLEVDCYRAPCSESQEELALQHFMKEKLLAELEGKLRVFENIVAVLNKEVEASHLALATSIHQSQLDRERILSLEQRVVELQQTLAQKDQALGKLEQSLRLMEEASFDGTFLWKITNVTRRCHESACGRTVSLFSPAFYTAKYGYKLCLRLYLNGDGTGKRTHLSLFIVIMRGEYDALLPWPFRNKVTFMLLDQNNREHAIDAFRPDLSSASFQRPQSETNVASGCPLFFPLSKLQSPKHAYVKDDTMFLKCIVETST | no binding |
| TRAF-2 (other, UniProt Q12933 1-501, looked up, Construct and tag not described) MAAASVTPPGSLELLQPGFSKTLLGTKLEAKYLCSACRNVLRRPFQAQCGHRYCSFCLASILSSGPQNCAACVHEGIYEEGISILESSSAFPDNAARREVESLPAVCPSDGCTWKGTLKEYESCHEGRCPLMLTECPACKGLVRLGEKERHLEHECPERSLSCRHCRAPCCGADVKAHHEVCPKFPLTCDGCGKKKIPREKFQDHVKTCGKCRVPCRFHAIGCLETVEGEKQQEHEVQWLREHLAMLLSSVLEAKPLLGDQSHAGSELLQRCESLEKKTATFENIVCVLNREVERVAMTAEACSRQHRLDQDKIEALSSKVQQLERSIGLKDLAMADLEQKVLEMEASTYDGVFIWKISDFARKRQEAVAGRIPAIFSPAFYTSRYGYKMCLRIYLNGDGTGRGTHLSLFFVVMKGPNDALLRWPFNQKVTLMLLDQNNREHVIDAFRPDVTSSSFQRPVNDMNIASGCPLFCPVSKMEAKNSYVRDDAIFIKAIVDLTGL | no binding |
| Ced-4 (other, UniProt P30429 1-549, looked up, Construct and tag not described) MLCEIECRALSTAHTRLIHDFEPRDALTYLEGKNIFTEDHSELISKMSTRLERIANFLRIYRRQASELGPLIDFFNYNNQSHLADFLEDYIDFAINEPDLLRPVVIAPQFSRQMLDRKLLLGNVPKQMTCYIREYHVDRVIKKLDEMCDLDSFFLFLHGRAGSGKSVIASQALSKSDQLIGINYDSIVWLKDSGTAPKSTFDLFTDILLMLKSEDDLLNFPSVEHVTSVVLKRMICNALIDRPNTLFVFDDVVQEETIRWAQELRLRCLVTTRDVEISNAASQTCEFIEVTSLEIDECYDFLEAYGMPMPVGEKEEDVLNKTIELSSGNPATLMMFFKSCEPKTFEKMAQLNNKLESRGLVGVECITPYSYKSLAMALQRCVEVLSDEDRSALAFAVVMPPGVDIPVKLWSCVIPVDICSNEEEQLDDEVADRLKRLSKRGALLSGKRMPVLTFKIDHIIHMFLKHVVDAQTIANGISILEQRLLEIGNNNVSVPERHIPSHFQKFRRSSASEMYPKTTEETVIRPEDFPKFMQLHQKFYDSLKNFACC | no binding |
| TRAF-6 (other, UniProt Q9Y4K3 1-522, looked up, Construct and tag not described) MSLLNCENSCGSSQSESDCCVAMASSCSAVTKDDSVGGTASTGNLSSSFMEEIQGYDVEFDPPLESKYECPICLMALREAVQTPCGHRFCKACIIKSIRDAGHKCPVDNEILLENQLFPDNFAKREILSLMVKCPNEGCLHKMELRHLEDHQAHCEFALMDCPQCQRPFQKFHINIHILKDCPRRQVSCDNCAASMAFEDKEIHDQNCPLANVICEYCNTILIREQMPNHYDLDCPTAPIPCTFSTFGCHEKMQRNHLARHLQENTQSHMRMLAQAVHSLSVIPDSGYISEVRNFQETIHQLEGRLVRQDHQIRELTAKMETQSMYVSELKRTIRTLEDKVAEIEAQQCNGIYIWKIGNFGMHLKCQEEEKPVVIHSPGFYTGKPGYKLCMRLHLQLPTAQRCANYISLFVHTMQGEYDSHLPWPFQGTIRLTILDQSEAPVRQNHEEIMDAKPELLAFQRPTIPRNPKGFGYVTFMHLEALRQRTFIKDDTLLVRCEVSTRFDMGSLRREGFQPRSTDAGV | no binding |
| NIK (enzyme, UniProt Q99558 1-947, looked up, Construct and tag not described) MAVMEMACPGAPGSAVGQQKELPKAKEKTPPLGKKQSSVYKLEAVEKSPVFCGKWEILNDVITKGTAKEGSEAGPAAISIIAQAECENSQEFSPTFSERIFIAGSKQYSQSESLDQIPNNVAHATEGKMARVCWKGKRRSKARKKRKKKSSKSLAHAGVALAKPLPRTPEQESCTIPVQEDESPLGAPYVRNTPQFTKPLKEPGLGQLCFKQLGEGLRPALPRSELHKLISPLQCLNHVWKLHHPQDGGPLPLPTHPFPYSRLPHPFPFHPLQPWKPHPLESFLGKLACVDSQKPLPDPHLSKLACVDSPKPLPGPHLEPSCLSRGAHEKFSVEEYLVHALQGSVSSGQAHSLTSLAKTWAARGSRSREPSPKTEDNEGVLLTEKLKPVDYEYREEVHWATHQLRLGRGSFGEVHRMEDKQTGFQCAVKKVRLEVFRAEELMACAGLTSPRIVPLYGAVREGPWVNIFMELLEGGSLGQLVKEQGCLPEDRALYYLGQALEGLEYLHSRRILHGDVKADNVLLSSDGSHAALCDFGHAVCLQPDGLGKSLLTGDYIPGTETHMAPEVVLGRSCDAKVDVWSSCCMMLHMLNGCHPWTQFFRGPLCLKIASEPPPVREIPPSCAPLTAQAIQEGLRKEPIHRVSAAELGGKVNRALQQVGGLKSPWRGEYKEPRHPPPNQANYHQTLHAQPRELSPRAPGPRPAEETTGRAPKLQPPLPPEPPEPNKSPPLTLSKEESGMWEPLPLSSLEPAPARNPSSPERKATVPEQELQQLEIELFLNSLSQPFSLEEQEQILSCLSIDSLSLSDDSEKNPSKASQSSRDTLSSGVHSWSSQAEARSSSWNMVLARGRPTDTPSYFNGVKVQIQSLNGEHLHIREFHRVKVGDIATGISSQIPAAAFSLVTKDGQPVRYDMEVPDSGIDLQCTLAPDGSFAWSWRVKHGQLENRP | no binding |
| IKKβ (enzyme, UniProt O14920 1-756, looked up, Construct and tag not described for this test) MSWSPSLTTQTCGAWEMKERLGTGGFGNVIRWHNQETGEQIAIKQCRQELSPRNRERWCLEIQIMRRLTHPNVVAARDVPEGMQNLAPNDLPLLAMEYCQGGDLRKYLNQFENCCGLREGAILTLLSDIASALRYLHENRIIHRDLKPENIVLQQGEQRLIHKIIDLGYAKELDQGSLCTSFVGTLQYLAPELLEQQKYTVTVDYWSFGTLAFECITGFRPFLPNWQPVQWHSKVRQKSEVDIVVSEDLNGTVKFSSSLPYPNNLNSVLAERLEKWLQLMLMWHPRQRGTDPTYGPNGCFKALDDILNLKLVHILNMVTGTIHTYPVTEDESLQSLKARIQQDTGIPEEDQELLQEAGLALIPDKPATQCISDGKLNEGHTLDMDLVFLFDNSKITYETQISPRPQPESVSCILQEPKRNLAFFQLRKVWGQVWHSIQTLKEDCNRLQQGQRAAMMNLLRNNSCLSKMKNSMASMSQQLKAKLDFFKTSIQIDLEKYSEQTEFGITSDKLLLAWREMEQAVELCGRENEVKLLVERMMALQTDIVDLQRSPMGRKQGGTLDDLEEQARELYRRLREKPRDQRTEGDSQEMVRLLLQAIQSFEKKVRVIYTQLSKTVVCKQKALELLPKVEEVVSLMNEDEKTVVRLQEKRQKELWNLLKIACSKVRGPVSGSPDSMNASRLSQPGQLMSQPSTASNSLPEPAKKSEELVAEAHNLCTLLENAIQDTVREQDQSFTALDWSWLQTEEEEHSCLEQAS | no binding |
| TRADD (other, UniProt Q15628 1-312, looked up, Construct and tag not described) MAAGQNGHEEWVGSAYLFVESSLDKVVLSDAYAHPQQKVAVYRALQAALAESGGSPDVLQMLKIHRSDPQLIVQLRFCGRQPCGRFLRAYREGALRAALQRSLAAALAQHSVPLQLELRAGAERLDALLADEERCLSCILAQQPDRLRDEELAELEDALRNLKCGSGARGGDGEVASAPLQPPVPSLSEVKPPPPPPPAQTFLFQGQPVVNRPLSLKDQQTFARSVGLKWRKVGRSLQRGCRALRDPALDSLAYEYEREGLYEQAFQLLRRFVQAEGRRATLQRLVEALEENELTSLAEDLLGLTDPNGGLA | no binding |
| RIP (enzyme, UniProt Q13546 1-671, looked up, Construct and tag not described for this test) MQPDMSLNVIKMKSSDFLESAELDSGGFGKVSLCFHRTQGLMIMKTVYKGPNCIEHNEALLEEAKMMNRLRHSRVVKLLGVIIEEGKYSLVMEYMEKGNLMHVLKAEMSTPLSVKGRIILEIIEGMCYLHGKGVIHKDLKPENILVDNDFHIKIADLGLASFKMWSKLNNEEHNELREVDGTAKKNGGTLYYMAPEHLNDVNAKPTEKSDVYSFAVVLWAIFANKEPYENAICEQQLIMCIKSGNRPDVDDITEYCPREIISLMKLCWEANPEARPTFPGIEEKFRPFYLSQLEESVEEDVKSLKKEYSNENAVVKRMQSLQLDCVAVPSSRSNSATEQPGSLHSSQGLGMGPVEESWFAPSLEHPQEENEPSLQSKLQDEANYHLYGSRMDRQTKQQPRQNVAYNREEERRRRVSHDPFAQQRPYENFQNTEGKGTAYSSAASHGNAVHQPSGLTSQPQVLYQNNGLYSSHGFGTRPLDPGTAGPRVWYRPIPSHMPSLHNIPVPETNYLGNTPTMPFSSLPPTDESIKYTIYNSTGIQIGAYNYMEIGGTSSSLLDSTNTNFKEEPAAKYQAIFDNTTSLTDKHLDPIRENLGKHWKNCARKLGFTQSQIDEIDHDYERDGLKEKVYQMLQKWVMREGIKGATVGKLAQALHQCSRIDLLSSLIYVSQN | no binding |
| caspase-1 (enzyme, UniProt P29466 1-404, looked up, Construct and tag not described) MADKVLKEKRKLFIRSMGEGTINGLLDELLQTRVLNKEEMEKVKRENATVMDKTRALIDSVIPKGAQACQICITYICEEDSYLAGTLGLSADQTSGNYLNMQDSQGVLSSFPAPQAVQDNPAMPTSSGSEGNVKLCSLEEAQRIWKQKSAEIYPIMDKSSRTRLALIICNEEFDSIPRRTGAEVDITGMTMLLQNLGYSVDVKKNLTASDMTTELEAFAHRPEHKTSDSTFLVFMSHGIREGICGKKHSEQVPDILQLNAIFNMLNTKNCPSLKDKPKVIIIQACRGDSPGVVWFKDSVGVSGNLSLPTTEEFEDDAIKKAHIEKDFIAFCSSTPDNVSWRHPTMGSVFIGRLIEHMQEYACSCDVEEIFRKVRFSFEQPDGRAQMPTTERVTLTRCFYLFPGH | no binding |
